{
  "source": "patent EP3083697B1",
  "binders": {"B1": {"name": "EN10 mAb (antibody, V domains shown)", "VH": "EVQLQQSGPELVKPGASVKMSCKASGYTFTSCVMNWVKQKPGQGLEWIGYINPYNDGTKYNEKFKGKATLTSDKSSSTAYMELSSLTSEDSAVYYCAREGFYYGNFDNWGQGTTLTVSS", "VL": "DIQMTQSPASLSASVGETVTITCRASENIYSYLTWYQQKQGKSPQLLVYNAKTLPEGVPSRFSGSGSGTQFSLKINSLQPEDFGSYYCQHHYGTPYTFGGGTKLEITR"}},
  "key": {"[1]": {"target": "ENO1 deletion mutant Δ1-189 (human) (UniProt P06733)", "test": "ELISA, mutant protein coated, 10 microgram EN10 mAb"}, "[2]": {"target": "ENO1 deletion mutant Δ1-297 (human) (UniProt P06733)", "test": "ELISA, mutant protein coated, 10 microgram EN10 mAb"}},
  "data": [
    {"binder": "B1", "values": [
      {"measurement": "OD405", "setting": "[1]", "result": 1.43, "unit": "OD405"},
      {"measurement": "percent of the OD405 of wild type ENO1", "setting": "[1]", "result": 42, "unit": "%"},
      {"measurement": "OD405", "setting": "[2]", "result": 1.56, "unit": "OD405"},
      {"measurement": "percent of the OD405 of wild type ENO1", "setting": "[2]", "result": 39, "unit": "%"}
    ]}
  ]
}
